Data on one molecule can be found in patent publication US6870041B1, “MurE protein and gene of pseudomonas aeruginosa” (priority 1999, dated 2005).

Data set [1] addresses T1, P. aeruginosa MurE (Pseudomonas aeruginosa, UniProt Q59650).
T1 construct: 6xHis (pET-15b) (N); made in house; host or cells: E. coli BL21(DE3)/pLysS, plasmid pPaeMurE (pET-15b)
T1 sequence (Q59650 whole entry, looked up): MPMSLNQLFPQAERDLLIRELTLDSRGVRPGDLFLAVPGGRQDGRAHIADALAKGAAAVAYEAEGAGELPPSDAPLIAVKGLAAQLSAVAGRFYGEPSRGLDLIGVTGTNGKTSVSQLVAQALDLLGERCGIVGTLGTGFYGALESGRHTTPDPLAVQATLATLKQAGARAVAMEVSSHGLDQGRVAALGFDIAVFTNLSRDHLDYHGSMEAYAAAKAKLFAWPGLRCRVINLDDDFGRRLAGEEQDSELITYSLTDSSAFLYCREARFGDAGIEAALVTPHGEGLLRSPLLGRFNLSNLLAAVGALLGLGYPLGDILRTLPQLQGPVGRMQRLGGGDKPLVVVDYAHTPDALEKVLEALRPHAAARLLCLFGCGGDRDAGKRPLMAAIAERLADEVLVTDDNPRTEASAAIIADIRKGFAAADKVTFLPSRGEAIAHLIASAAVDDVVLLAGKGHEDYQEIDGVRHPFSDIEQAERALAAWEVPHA
In words: ATP-dependent MurE activity, pyruvate kinase/lactate dehydrogenase coupled enzyme assay (ADP formation). It counts as biochemical. The following applies: recombinant MurE from P. aeruginosa; 25° C., pH 8.0; ADP formed per min per mg. As to the method:
(§1) The ATP-dependent MurE activity was assayed by monitoring the formation of product ADP using the pyruvate kinase and lactate dehydrogenase coupled enzyme assay. The reaction was monitored spectrophotometrically.
(§2) Typically, the assay contained 100 mM BIS-TRIS-propane, pH 8.0, 200 μM NADH, 1 mM ATP, 20 mM PEP, 5 mM MgCl2, 1 mM DTT, 350 μM UDP-N-acetyl-muramyl-L-alanine-D-Glutamine, 1 mM m-Dap, 33 units/ml of pyruvate kinase and 1660 units/ml of lactate dehydrogenase in a final volume of 200 or 400 μl. The mixture was incubated at 25° C. for 5 min and the reaction initiated by the addition of 1-10 μg of MurE. These conditions are one example of an assay useful for evaluating the activity of MurE. Other assays can be used, or amounts of buffers, substrate and enzyme can be changed, as desired, to alter the rate of production of ADP.
(§3) ADP formation was monitored by the decrease in absorbance at 340 nm as a function of time using a MOLECULAR DEVICES SPECTRAMAXPLUS™ microtiterplate spectrophotomer (for 200 μl assays) or a HEWLETT-PACKARD HP8452A spectrophotometer equipped with a circulating water bath (for 400 μl assays). Rates were calculated from the linear portions of the progress curves using the extinction coefficient for NADH, e=6220 cm^−1 M-1. One unit of MurE activity is equal to 1 μmol of ADP formed per min at 25° C.

Data set [2] deals with T2, E. coli MurE (Escherichia coli, UniProt P22188).
T2 sequence (P22188 whole entry, looked up): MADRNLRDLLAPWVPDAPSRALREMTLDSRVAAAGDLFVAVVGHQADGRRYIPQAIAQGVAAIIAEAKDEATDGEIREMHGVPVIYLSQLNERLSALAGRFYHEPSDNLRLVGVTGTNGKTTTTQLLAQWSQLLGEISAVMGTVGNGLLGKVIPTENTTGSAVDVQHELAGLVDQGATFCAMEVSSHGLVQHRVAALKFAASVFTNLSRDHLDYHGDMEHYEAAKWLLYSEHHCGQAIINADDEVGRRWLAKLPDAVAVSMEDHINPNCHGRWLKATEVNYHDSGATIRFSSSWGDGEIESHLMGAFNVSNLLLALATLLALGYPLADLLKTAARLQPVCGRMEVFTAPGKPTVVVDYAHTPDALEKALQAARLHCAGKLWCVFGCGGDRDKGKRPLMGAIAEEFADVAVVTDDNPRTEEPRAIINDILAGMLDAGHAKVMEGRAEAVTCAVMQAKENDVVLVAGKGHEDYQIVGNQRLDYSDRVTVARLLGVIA
The data set is described as above. It counts as biochemical. The note with it: recombinant MurE from E. coli; 25° C., pH 8.0; ADP formed per min per mg. On the procedure: as §1, §2, §3

B1: UDP-N-acetylmuramoyl-L-alanyl-D-glutamate:meso-2,6-diaminopimelate ligase (protein, listed as Pseudomonas aeruginosa)
chain: MPMSLSQLFPQAERDLLIRELTLDSHGVRPVDLFLTVPGGHQDGRAHIADALTKGATAVAYEAEGAGELPPSDAPLIAVKGLAAQLSAVAGRFYGEPSRGLDLIGVTGTNGKTSVSQLVAQALDLLGERCGIVGTLGTGFYGALESGRHTTPDPLAVQATLATLKQAGARAVAMEVSSHGLDQGRVAALGFDIAVFTNLSRDHLDYHGSMEAYAAAKAKLFAWPDLRCRVINLDDDFGRRLAGEEQDSELITYSLTDSSAFLYCREARFGDAGIEAALVTPHGEGLLRSPLLGRFNLSNLLAAVGALLGLGYPLGDILRTLPQLQGPVGRMQRLGGGGKPLVVVDYAHTPDALEKVLEALRPHAAARLLCLFGCGGDRDAGKRPLMAAIAERLADEVLVTDDNPRTEASAAIIADIRKGFAAADKVTFLPSRGEAIAHLIASAAVDDVVLLAGKGHEDYQEIDGVRHPFSDIEQAERALAAWEVPHA
modifications: His tag
B1: the “Specific activities of recombinant MurE, P. aeruginosa” value in data set [1] was 3.31 µmol/min/mg. Also, the “Specific activities of recombinant MurE, E. coli” value in data set [2] was determined as 0.68 µmol/min/mg.
